Assay [1] concerns the target T1, human AdipoR2 protein (human, UniProt Q86V24 1-386).
T1 construct: Stably expressed on CHO cells together with EGFP as a separate expression marker; also called adiponectin receptor 2; hAdipoR2
T1 sequence: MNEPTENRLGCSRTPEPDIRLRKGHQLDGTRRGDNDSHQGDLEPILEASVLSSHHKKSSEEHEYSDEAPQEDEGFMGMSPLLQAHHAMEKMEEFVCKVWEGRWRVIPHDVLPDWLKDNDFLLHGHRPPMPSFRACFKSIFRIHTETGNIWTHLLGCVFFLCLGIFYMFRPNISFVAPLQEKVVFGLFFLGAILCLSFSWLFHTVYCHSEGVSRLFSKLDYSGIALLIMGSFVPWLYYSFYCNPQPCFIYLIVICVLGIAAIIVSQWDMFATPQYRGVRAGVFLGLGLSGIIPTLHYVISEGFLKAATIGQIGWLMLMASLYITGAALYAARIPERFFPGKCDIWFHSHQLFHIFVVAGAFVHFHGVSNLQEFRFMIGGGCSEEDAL
Nature of the assay: flow cytometry on human AdipoR2-expressing CHO cells against parental CHO cells. A general note: In flow cytometry, cells or beads pass a laser one at a time.

For assay [2], the target named is T2, human AdipoR1 protein (human, UniProt Q96A54 1-375).
T2 construct: Stably expressed on CHO cells together with EGFP as a separate expression marker; also called adiponectin receptor 1; hAdipoR1
T2 sequence: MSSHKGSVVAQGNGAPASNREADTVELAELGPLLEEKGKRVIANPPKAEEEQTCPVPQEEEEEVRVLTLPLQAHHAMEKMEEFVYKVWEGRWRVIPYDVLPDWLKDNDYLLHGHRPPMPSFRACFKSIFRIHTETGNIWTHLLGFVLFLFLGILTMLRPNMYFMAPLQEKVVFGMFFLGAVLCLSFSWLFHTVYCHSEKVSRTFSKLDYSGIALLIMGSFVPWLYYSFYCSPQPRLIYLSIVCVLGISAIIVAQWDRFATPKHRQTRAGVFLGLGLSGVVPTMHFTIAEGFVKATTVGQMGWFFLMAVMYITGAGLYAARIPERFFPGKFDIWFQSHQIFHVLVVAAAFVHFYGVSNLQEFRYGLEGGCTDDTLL
Nature of the assay: flow cytometry on human AdipoR1-expressing CHO cells against parental CHO cells.

Assay [3] addresses T1, human AdipoR2 protein. Nature of the assay: fluorescent ligand binding to cells stably expressing human AdipoR2 (8200 Cellular Detection System).

B1: mouse-human chimeric antibody WT (antibody, V domains shown)
VH: DVKLVESGEGLVKPGGSLKLSCAASGFTFSSYAMSWVRQTPEKRLEWVAYISSGGDYIYYADTVKGRFTISRDNARNTLYLQMSSLKSEDTAMYYCTRALEAMDYWGQGTSVTVSS
VL: ETTVTQSPASLSMAIGEKVTIRCITSTDIDDDMNWYQQKPGEPPKLLISEGNTLRPGVPSRFSSSGYGTDFVFTIENMLSEDVADYYCLQSDNLPFTFGSGTKLEIK
In the case of B1, the binding result in assay [1] and in assay [2] was “binds” each time.

B2: fluorescently labeled human plasma-derived adiponectin (ligand, UniProt Q15848 19-244, looked up)
chain: ETTTQGPGVLLPLPKGACTGWMAGIPGHPGHNGAPGRDGRDGTPGEKGEKGDPGLIGPKGDIGETGVPGAEGPRGFPGIQGRKGEPGEGAYVYRSAFSVGLETYVTIPNMPIRFTKIFYNQQNHYDGSTGKFHCNIPGLYYFAYHITVYMKDVKVSLFKKDKAMLFTYDQYQENNVDQASGSVLLHLEVGDQVWLQVYGEGERNGLYADNDNDSTFTGFLLYHDTN
modifications: fluorescent label (site not stated)
For the molecule B2, in assay [3], the binding result is on record as “binds”.
